Results taken from publication PMC7060258, “A new multigene HCIQ subfamily from the sea anemone Heteractis crispa encodes Kunitz-peptides exhibiting neuroprotective activity against 6-hydroxydopamine” (Scientific Reports, 2020).
No end group written: not given here.

T1: human neutrophil elastase (human, UniProt P08246 30-267)
T1 sequence (looked up): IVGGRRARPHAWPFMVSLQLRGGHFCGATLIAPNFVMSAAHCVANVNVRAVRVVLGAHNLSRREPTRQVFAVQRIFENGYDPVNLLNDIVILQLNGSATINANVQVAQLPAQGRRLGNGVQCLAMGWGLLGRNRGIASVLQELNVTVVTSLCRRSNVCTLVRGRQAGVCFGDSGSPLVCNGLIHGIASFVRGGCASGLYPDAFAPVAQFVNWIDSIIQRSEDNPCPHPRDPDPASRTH

B1: recombinant HCIQ4c7 Kunitz-type peptide from Heteractis crispa (peptide)
chain: IQGNICSEPKKVGRCRESFPRFYFDSETGKCTPFIYGGCGGNGNNFETLHACRAICRA
modifications: not fully specified; cysteine pairing not given here
B2: recombinant HCIQ2c1 Kunitz-type peptide from Heteractis crispa (peptide, UniProt A0A6B7FBD3 28-85, looked up)
chain: IQGNICSEPKKVGRCRGSFPRFYFDSETGKCTPFIYGGCGGNGNNFETLHACRAICRA
notes: HCIQ2c1, Kunitz-type peptide of the sea anemone Heteractis crispa; mature peptide of 58 aa (precursor 85 aa: signal peptide 22 aa, propeptide 5 aa ending in Lys-Arg at 26-27, mature peptide 58 aa); begins with Ile-Gln; measured mass 6330 Da; numbers count on: the mature protein; also called rHCIQ2c1; source: E. coli BL21 (DE3), thioredoxin fusion, purified (Ni-NTA, CNBr cleavage, RP-HPLC)
B3: pancreatic kallikrein (enzyme)
chain: not shown
modifications: Species and supplier are not given; porcine pancreatic kallikrein is assumed as the usual commercial enzyme. Limits are the active chain of the candidate entry. The natural enzyme is glycosylated …

What was measured:
Settings in all cases: both partners purified
[1] = target: trypsin; test: enzyme inhibition (Dixon method); trypsin 208 nM, substrate BAPNA 0.6 and 1.2 mM, peptide 0–26.6 µM (rHCIQ2c1) or 0–24 µM (rHCIQ4c7); three parallel experiments
[2] = target: T1, human neutrophil elastase; test: SPR; Biacore 3000; peptides covalently immobilised on a CM4 chip (970 RU rHCIQ2c1, 460 RU rHCIQ4c7); proteinases 1 nM to 5 μM flowed over; 25 °C; HBS: 0.15 M NaCl, 0.01 M HEPES, pH 7.4
[3] = target: B2; test: as above

trypsin, sequence (P00760 24-246): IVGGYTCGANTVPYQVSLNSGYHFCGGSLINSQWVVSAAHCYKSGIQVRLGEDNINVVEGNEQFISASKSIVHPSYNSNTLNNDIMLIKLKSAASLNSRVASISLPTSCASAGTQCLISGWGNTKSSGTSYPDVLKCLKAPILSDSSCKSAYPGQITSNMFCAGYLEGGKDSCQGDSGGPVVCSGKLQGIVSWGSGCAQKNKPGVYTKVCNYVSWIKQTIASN

| Binder | Ki [1] | Ka [2] | Kd [2] | koff [2] | kon [2] | Ka [3] | Kd [3] | koff [3] | kon [3] |
| --- | --- | --- | --- | --- | --- | --- | --- | --- | --- |
| B1 | 190 nM | 1.05e+06 M⁻¹ | 955 nM | 0.0114 s⁻¹ | 11900 M⁻¹ s⁻¹ | – | – | – | – |
| B2 | 52 nM | 7.9e+06 M⁻¹ | 127 nM | 0.00861 s⁻¹ | 68000 M⁻¹ s⁻¹ | – | – | – | – |
| B3 | – | – | – | – | – | 2.04e+06 M⁻¹ | 490 nM | 0.00379 s⁻¹ | 49400 M⁻¹ s⁻¹ |
